Measured values as given in publication PMC4005675.

Legend:
[1] = target: full-length ComE^D58E from Streptococcus pneumoniae (Streptococcus pneumoniae strain R6); assay: SAXS
[2] = target: isolated REC^D58E domain of ComE (Streptococcus pneumoniae strain R6); assay: SEC
[3] = target: isolated REC^D58E domain of ComE (Streptococcus pneumoniae strain R6); assay: SAXS

Row | Substance | stoichiometry N [1] | stoichiometry N [2] | stoichiometry N [3]
1 | full-length ComE^D58E from Streptococcus pneumoniae (natural protein) | 2 | – | –
2 | isolated REC^D58E domain of ComE (domain or fragment) | – | 2 | 2
